Source: paper PMC3840220

Target: bromelain-released influenza hemagglutinin (X31) (influenza virus X31)
Experiment: […]

With “bromelain-released influenza hemagglutinin (X31) (domain or fragment)” as the substance, how does the stoichiometry N read?
Its stoichiometry N is 3.
